The results in this text go back to patent US20040253629A1 (Stanford University, published 2004).

B1: Bok-S (short splicing variant of Bok, rat) (other)
chain: MEVLRRSSVFAAEIMDAFDRSPTDKELVAQAKALGREYVHARLLRAGLSWSAPERASPAPGGRLAEVCTVLLRLGITWGKVVSLYSVAAGLAVDCVRQAQPAMVHALVDCLGEFVRKTLATWLRRRGGWTDVLKCVVSTDPGFRSHWLVATLCSFGRFLKAAFFLLLPER
notes: also called truncated Bok
B2: Bok-L (Bcl-2-related ovarian killer, long form, rat) (other)
chain: MEVLRRSSVFAAEIMDAFDRSPTDKELVAQAKALGREYVHARLLRAGLSWSAPERASPAPGGRLAEVCTVLLRLGDELEQIRPSVYRNVARQLHIPLQSEPVVTDAFLAVAGHIFSAGITWGKVVSLYSVAAGLAVDCVRQAQPAMVHALVDCLGEFVRKTLATWLRRRGGWTDVLKCVVSTDPGFRSHWLVATLCSFGRFLKAAFFLLLPER
notes: also called full-length Bok protein
B3: BokADE (Bok-L G75A) (other)
chain: B2 chain with G75A
notes: also called BokADE: G 75 A
B4: BokAAA (Bok-L 75 AAA 77) (other)
chain: B2 chain with G75A, D76A, E77A
notes: also called BokAAA: 75 AAA 77
B5: BokGGGG (Bok-L 71 LLRL 74 to 71 GGGG 74) (other)
chain: B2 chain with L71G, L72G, R73G, L74G
notes: also called BokGGGG mutant
B6: BHRF1 (other)
chain: MAYSTREILLALCIRDSRVHGNGTLHPVLELAARETPLRLSPEDTVVLRYHVLLEEIIERNSETFTETWNRFITHTEHVDLDFNSVFLEIFHRGDPSLGRALAWMAWCMHACRTLCCNQSTPYYVVDLSVRGMLEASEGLDGWIHQQGGWSTLIEDNIPGSRRFSWTLFLAGLTLSLLVICSYLFISRGRH

The target of the experiment “BHRF1” is B6. In words: yeast two-hybrid, Bok-S-GAL4-AD vs GAL4-BD fusion.
The target in experiment [1] is T1, Mcl-1 (rat) (rat, UniProt Q9Z1P3 1-330). As to the kind of experiment: yeast two-hybrid, Bok-S-GAL4-AD vs GAL4-BD fusion.
In experiment [2] the target is T1, Mcl-1 (rat). In words: yeast two-hybrid, yeast cell growth grade (++ prominent, + moderate).
Procedure: (§1) Specific binding of different protein pairs was evaluated based on the activation of GAL1-HIS3 and GAL4-lacZ reporter genes.
Experiment [3] addresses T1, Mcl-1 (rat). In words: yeast two-hybrid, mutant Bok-L-GAL4-AD vs GAL4-BD fusion.
Procedure: Yeast two-hybrid assay. […] After transformation of yeast cells, colonies containing different protein pairs were selected on plates lacking tryptophan and leucine. To test for specific protein-protein interactions, positive transformants were further selected for growth in media deficient for tryptophan, leucine and histidine but containing 5-30 mM 3-aminotriazole to inhibit endogenous histidine production. A minimum of five independent transformants containing each pair of fusion cDNAs was routinely analyzed.
The mutants included alanine substitutions at the highly conserved glycine 75 or glycine 75 plus flanking aspartic acid 76 and glutamic acid 77 (BokADE: G 75 A and BokAAA: 75 AAA 77). In addition, a glycine substitution was made for leucine 71 to leucine 74 (BokGGGG: 71 LLRL 74 to 71 GGGG 74).
Experiment [4] has as its target B2. In words: yeast two-hybrid, yeast cell growth grade (++ prominent, + moderate).
Procedure: as §1

Positions count from the first letter of the chain named. Names and notes keep the numbering of the source.

T1 sequence (Q9Z1P3 whole entry, the tested form may be a part): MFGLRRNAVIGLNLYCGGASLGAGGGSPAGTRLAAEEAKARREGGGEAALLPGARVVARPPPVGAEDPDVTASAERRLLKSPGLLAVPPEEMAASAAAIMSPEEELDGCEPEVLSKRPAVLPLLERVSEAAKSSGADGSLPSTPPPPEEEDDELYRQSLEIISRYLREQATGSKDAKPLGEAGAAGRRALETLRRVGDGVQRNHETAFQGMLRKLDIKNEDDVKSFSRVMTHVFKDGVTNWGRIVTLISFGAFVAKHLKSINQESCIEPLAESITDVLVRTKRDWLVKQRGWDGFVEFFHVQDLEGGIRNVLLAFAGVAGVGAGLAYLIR

In the case of B1, the binding result in the experiment with BHRF1 and with Mcl-1 (rat) [1] was “no binding” in each case. With B2, the binding result with Mcl-1 (rat) [2] is “binds”. Turning to B3, the binding result in the experiment with Mcl-1 (rat) [3] was “no binding”.

As to B4, in the experiment with Mcl-1 (rat) [3], the binding result is listed as “no binding”.

For B5, the binding result with Mcl-1 (rat) [3] is listed as “no binding”.

As to B6, in experiment [4], the binding result is reported as “binds”.
